In paper PMC3035456:
Read-outs that look alike come from different tables or passages of the source.

Legend:
[1] = biological target: HuR123 (UniProt Q15717 1-306); test: SPR
[2] = biological target: HuR12 (UniProt Q15717 18-184); test: SPR
[3] = biological target: T1, TIAR12 (UniProt Q01085 1-181); test: SPR
T1 sequence: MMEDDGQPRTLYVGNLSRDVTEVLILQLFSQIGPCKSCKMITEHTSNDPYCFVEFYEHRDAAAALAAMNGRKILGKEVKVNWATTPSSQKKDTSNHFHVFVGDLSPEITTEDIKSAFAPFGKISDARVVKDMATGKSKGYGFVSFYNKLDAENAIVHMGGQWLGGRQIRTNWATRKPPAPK

[4] = biological target: T1, TIAR12; test: size exclusion chromatography
[5] = biological target: T2, TIAR123 (UniProt Q01085 1-283); test: SPR
T2 sequence: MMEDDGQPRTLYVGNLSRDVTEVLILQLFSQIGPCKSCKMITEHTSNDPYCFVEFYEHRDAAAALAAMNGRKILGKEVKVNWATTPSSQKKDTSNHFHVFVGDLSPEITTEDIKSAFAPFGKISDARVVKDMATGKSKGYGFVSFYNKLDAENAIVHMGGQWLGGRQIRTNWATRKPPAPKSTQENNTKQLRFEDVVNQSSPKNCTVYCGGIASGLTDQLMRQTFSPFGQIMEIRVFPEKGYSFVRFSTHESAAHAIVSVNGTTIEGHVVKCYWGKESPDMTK

[6] = biological target: T1, TIAR12; test: SPR; remark: listed apart in the source

Chain of HuR12 (Q15717 18-184): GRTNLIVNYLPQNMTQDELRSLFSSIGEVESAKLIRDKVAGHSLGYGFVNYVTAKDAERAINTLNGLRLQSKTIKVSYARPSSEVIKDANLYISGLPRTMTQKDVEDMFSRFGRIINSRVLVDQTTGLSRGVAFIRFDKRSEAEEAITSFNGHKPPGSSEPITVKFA
Chain of HuR123 (Q15717 1-306): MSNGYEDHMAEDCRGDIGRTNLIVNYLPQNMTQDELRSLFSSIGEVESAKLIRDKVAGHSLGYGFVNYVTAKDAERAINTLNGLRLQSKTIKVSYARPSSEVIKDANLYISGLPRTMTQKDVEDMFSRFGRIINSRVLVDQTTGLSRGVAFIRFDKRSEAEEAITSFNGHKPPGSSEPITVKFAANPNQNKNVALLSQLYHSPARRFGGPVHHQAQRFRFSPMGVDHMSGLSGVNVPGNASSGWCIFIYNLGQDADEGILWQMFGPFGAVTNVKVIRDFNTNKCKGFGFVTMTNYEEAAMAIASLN

With GGGGGGUUUUUUUUUUUUUUUUUGGGGG (ssRNA) [U-rich RNA 28-mer] the Kd [1] was 0.05 ± 0.001 nM.

UUUUUUUUUUUUUUUUUUUU (ssDNA, all deoxyuridine (2'-deoxy)) [U-rich DNA 20-mer] showed a Kd [2] of 20600 ± 1570 nM and a Kd [3] of 21.7 ± 0.38 nM.

UUUUUUUUUUUUUUUUU (ssRNA) [U-rich RNA 17-mer] showed a Kd [2] of 40 ± 24 nM.

With UUUUUUUUUUUUU (ssRNA) [U-rich RNA 13-mer] the Kd [2] was 195 ± 6.3 nM.

UUUUUUUUUUUUU (ssRNA) [U-rich RNA 13-mer (solution)]: binds [4].

GGGGGGUAUUUAUUAUUUAUUUAGGGGG (ssRNA) [AU-rich RNA 28-mer (TNF-alpha ARE)] was tested, and the Kd [2] was 506 ± 13.1 nM, the Kd [1] was 0.2 ± 0.007 nM and the Kd [5] was 14.1 ± 0.22 nM. For the same binder, the Kd [3] was 42.5 ± 0.63 nM.

Work on TTTTTTTTTTTTTTTTTTTT (ssDNA) [T-rich DNA 20-mer] yielded a Kd [6] of 3.81 ± 0.74 nM and a Kd [2] of 2640 ± 82.3 nM.

In the case of UUUUUUUU (ssRNA) [U-rich RNA 8-mer], the Kd [2] is reported as 4700 ± 116 nM.
